Laboratory results from paper PMC6342966.

Molecular target: His6-Z_GFP 11 (GFP 11 genetically fused to the C-terminus of the IgG binding Z domain derived from protein A)
Experiment: split reporter (BiFC, NanoBiT); split-GFP fluorescence complementation in solution, 96-well plate, TNG buffer, 225 µM His6-Z_GFP 11 and 0.2 µM GFP 1–10 variant, 25 °C, excitation 488 nm, emission 535 nm, controls without His6-Z_GFP 11 subtracted

Row | Substance | rate of increase of the fluorescent signal after adding His6-Z GFP 11 [a.u./second] | rate of increase of the fluorescent signal after adding His6-Z GFP 11, additional hour after the first two minutes [a.u./sec] | rate of increase of the fluorescent signal after adding His6-Z GFP 11, first two minutes [a.u./sec]
1 | GFP 1–10 OPT (non-maturated) (domain or fragment) | 0.5 |  | 
2 | GFP 1–10^mat (GFP 1–10 with maturated chromophore) (domain or fragment) |  | 6 | 83
